These results are taken from article PMC5062937, “Aadh2p: an Arxula adeninivorans alcohol dehydrogenase involved in the first step of the 1-butanol degradation pathway” (Microbial Cell Factories, 2016).

What all share (assay): purified protein
Assay type in all cases: biochemical, Blastobotrys adeninivorans

For one data set, the system named is T1, CCCCO.
T1 construct: full length, N-terminal His6 tag (MHHHHHH then VPSPDI), expressed in A. adeninivorans G1212/YIC102-6H-AADH2, Ni-NTA purified; ORF 1068 bp, 356 residues printed; native 88 kDa, dimer
To be noted: oxidation, 1 mM NAD+, 50 mM Tris-HCl pH 9.0, 30 °C, pH 9.0.

The test system of another data set is T2, CC=O.
T2 construct: full length, N-terminal His6 tag (MHHHHHH then VPSPDI), expressed in A. adeninivorans G1212/YIC102-6H-AADH2, Ni-NTA purified; ORF 1068 bp, 356 residues printed; native 88 kDa, dimer
Conditions: reduction, 0.8 mM NADH, 50 mM sodium phosphate pH 7.5, 30 °C, pH 7.5.

Data set [1] concerns T3, NC(=O)C1=CN([C@@H]2O[C@H](COP(=O)(O)OP(=O)(O)OC[C@H]3O[C@@H](n4cnc5c(N)ncnc54)[C@H](O)[C@@H]3O)[C@@H](O)[C@H]2O)C=CC1.
T3 construct: full length, N-terminal His6 tag (MHHHHHH then VPSPDI), expressed in A. adeninivorans G1212/YIC102-6H-AADH2, Ni-NTA purified; ORF 1068 bp, 356 residues printed; native 88 kDa, dimer
To be noted: reduction, 20 mM acetaldehyde, 50 mM sodium phosphate pH 7.5, 30 °C, pH 7.5, varied: cofactor.

Data set [2] relates to T4, NC(=O)c1ccc[n+]([C@@H]2O[C@H](COP(=O)(O)OP(=O)(O)OC[C@H]3O[C@@H](n4cnc5c(N)ncnc54)[C@H](O)[C@@H]3O)[C@@H](O)[C@H]2O)c1.
T4 construct: full length, N-terminal His6 tag (MHHHHHH then VPSPDI), expressed in A. adeninivorans G1212/YIC102-6H-AADH2, Ni-NTA purified; ORF 1068 bp, 356 residues printed; native 88 kDa, dimer
Conditions: oxidation, 100 mM ethanol, 50 mM Tris-HCl pH 9.0, 30 °C, pH 9.0, varied: cofactor.

A further data set relates to T5, CCCC=O.
T5 construct: full length, N-terminal His6 tag (MHHHHHH then VPSPDI), expressed in A. adeninivorans G1212/YIC102-6H-AADH2, Ni-NTA purified; ORF 1068 bp, 356 residues printed; native 88 kDa, dimer
To be noted: reduction, 0.4 mM NADH, 50 mM sodium phosphate pH 7.5, 30 °C, pH 7.5.

6h-Aadh2p (Blastobotrys adeninivorans): the Km with CCCCO is listed as 0.3 mM; in the data set on CC=O, 26.5 mM; in data set [1], 0.07 mM; in data set [2], 0.5 mM; in the data set on CCCC=O it was 0.5 mM. The kcat in the data set on CCCCO was determined as 1310 s⁻¹; in the data set on CC=O, 15.2 s⁻¹; in data set [1], 14.7 s⁻¹; in data set [2], 2.2 s⁻¹; with CCCC=O, 11900 s⁻¹. Moreover, the kcat/Km was 4.37e+06 M⁻¹ s⁻¹ in the data set with CCCCO; 600 M⁻¹ s⁻¹ in the data set on CC=O; 224000 M⁻¹ s⁻¹ in data set [1]; 4000 M⁻¹ s⁻¹ in data set [2]; 2.37e+07 M⁻¹ s⁻¹ in the data set with CCCC=O.
